Assay results: patent publication US20250289897A1 (Eli Lilly, published 2025)

T1: canine LEPR-ECD-His (canine)
T1 chain: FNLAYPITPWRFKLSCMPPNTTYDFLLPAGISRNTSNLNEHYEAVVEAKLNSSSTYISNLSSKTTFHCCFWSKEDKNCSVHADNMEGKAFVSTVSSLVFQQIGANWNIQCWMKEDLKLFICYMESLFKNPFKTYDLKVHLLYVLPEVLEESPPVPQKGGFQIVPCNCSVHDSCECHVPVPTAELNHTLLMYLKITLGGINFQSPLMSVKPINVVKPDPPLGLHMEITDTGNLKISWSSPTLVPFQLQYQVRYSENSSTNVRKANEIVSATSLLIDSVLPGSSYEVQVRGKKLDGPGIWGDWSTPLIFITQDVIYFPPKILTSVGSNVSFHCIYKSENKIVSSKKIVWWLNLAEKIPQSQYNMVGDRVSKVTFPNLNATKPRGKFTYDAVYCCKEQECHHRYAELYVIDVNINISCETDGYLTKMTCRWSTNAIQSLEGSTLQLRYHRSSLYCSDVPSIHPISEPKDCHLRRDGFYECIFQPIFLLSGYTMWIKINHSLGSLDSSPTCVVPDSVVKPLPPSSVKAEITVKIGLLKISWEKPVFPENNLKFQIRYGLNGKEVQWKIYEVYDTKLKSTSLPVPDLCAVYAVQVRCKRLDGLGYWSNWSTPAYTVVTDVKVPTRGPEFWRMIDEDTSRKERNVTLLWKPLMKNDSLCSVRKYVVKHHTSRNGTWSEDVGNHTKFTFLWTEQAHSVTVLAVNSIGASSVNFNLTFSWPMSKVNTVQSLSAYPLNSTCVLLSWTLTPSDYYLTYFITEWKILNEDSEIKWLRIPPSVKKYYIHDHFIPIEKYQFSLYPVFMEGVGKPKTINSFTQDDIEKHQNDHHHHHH

T2: human FcγRIIA_131H (CD32a) extracellular domain (human, UniProt P12318 34-217)
T2 construct: extracellular domain
T2 sequence (looked up): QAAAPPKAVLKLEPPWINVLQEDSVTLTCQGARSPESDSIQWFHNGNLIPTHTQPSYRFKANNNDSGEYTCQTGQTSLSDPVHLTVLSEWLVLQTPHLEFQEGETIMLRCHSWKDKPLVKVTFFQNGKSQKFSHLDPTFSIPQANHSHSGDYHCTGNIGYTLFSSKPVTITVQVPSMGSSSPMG

T3: human FcγRIIb (CD32b) extracellular domain (human, UniProt P31994 43-217)
T3 construct: extracellular domain
T3 sequence (looked up): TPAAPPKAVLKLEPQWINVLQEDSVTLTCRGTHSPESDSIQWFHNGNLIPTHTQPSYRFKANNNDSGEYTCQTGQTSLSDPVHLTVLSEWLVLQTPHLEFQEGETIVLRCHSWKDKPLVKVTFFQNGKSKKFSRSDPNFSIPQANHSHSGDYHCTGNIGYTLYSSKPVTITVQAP

T4: human LEPR-ECD-His (human, UniProt P48357 22-839)
T4 sequence: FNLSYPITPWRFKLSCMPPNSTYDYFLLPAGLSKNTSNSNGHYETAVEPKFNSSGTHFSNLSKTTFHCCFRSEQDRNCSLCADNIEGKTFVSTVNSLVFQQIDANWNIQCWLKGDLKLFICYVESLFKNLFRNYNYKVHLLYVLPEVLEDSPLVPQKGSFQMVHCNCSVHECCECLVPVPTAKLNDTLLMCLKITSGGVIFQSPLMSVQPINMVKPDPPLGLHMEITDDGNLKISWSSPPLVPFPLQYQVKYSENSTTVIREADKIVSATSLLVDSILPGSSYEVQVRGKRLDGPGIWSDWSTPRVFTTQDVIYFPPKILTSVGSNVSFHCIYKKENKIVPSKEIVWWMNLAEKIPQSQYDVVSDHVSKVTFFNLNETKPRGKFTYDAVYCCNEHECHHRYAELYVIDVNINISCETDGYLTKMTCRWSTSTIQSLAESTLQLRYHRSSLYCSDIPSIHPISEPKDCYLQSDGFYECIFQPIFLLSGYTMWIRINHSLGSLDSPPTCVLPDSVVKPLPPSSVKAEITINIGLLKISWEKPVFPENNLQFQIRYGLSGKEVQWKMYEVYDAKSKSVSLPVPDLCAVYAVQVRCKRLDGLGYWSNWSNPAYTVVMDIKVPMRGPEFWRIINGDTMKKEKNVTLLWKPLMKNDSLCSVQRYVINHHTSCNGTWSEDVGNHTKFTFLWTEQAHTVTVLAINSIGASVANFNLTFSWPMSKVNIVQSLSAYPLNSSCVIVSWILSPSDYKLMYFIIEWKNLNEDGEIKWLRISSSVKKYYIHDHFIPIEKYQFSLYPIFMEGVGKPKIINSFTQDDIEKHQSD

B1: Antibody A (antibody, human IgG1, kappa, L234A L235A)
heavy: EVQLLESGGGLVQPGGSLRLSCAASGFTFSSFAMSWVRQAPGKGLEWVSAISGSGGSTYSADSVRGRFTISRDNSKNTLYLQMNSLRAEDTAVYYCAKDQGDWDFLFDYWGQGTLVTVSSASTKGPSVFPLAPSSKSTSGGTAALGCLVKDYFPEPVTVSWNSGALTSGVHTFPAVLQSSGLYSLSSVVTVPSSSLGTQTYICNVNHKPSNTKVDKRVEPKSCDKTHTCPPCPAPEAAGGPSVFLFPPKPKDTLYITREPEVTCVVVSVSHEDPEVKFNWYVDGVEVHNAKTKPREEQYNSTYRVVSVLTVLHQDWLNGKEYKCKVSNKALPAPIEKTISKAKGQPREPQVYTLPPSREEMTKNQVSLTCLVKGFYPSDIAVEWESNGQPENNYKTTPPVLDSDGSFFLYSKLTVDKSRWQQGNVFSCSVMHEALHNHYTQKSLSLSPGK
light: DIQMTQSPSFLSASVGDRVTITCRASQGISSSLAWYQQKPGKAPKLLIYTASTLQSGVPSRFSGSGSGTEFTLTISSLQPEDFATYYCQQLIYYPFTFGQGTKVEIKRTVAAPSVFIFPPSDEQLKSGTASVVCLLNNFYPREAKVQWKVDNALQSGNSQESVTEQDSKDSTYSLSSTLTLSKADYEKHKVYACEVTHQGLSSPVTKSFNRGEC
notes: IgG1 mAb
B2: Antibody C (antibody, human IgG1, kappa, L234A L235A, V domains shown)
VH: EVQLLESGGGLVQPGGSLRLSCAASGFTFSSFAMSWVRQAPGKGLEWVSAISGSGGSTYSADSVRGRFTISRDNSKNTLYLQMNSLRAEDTAVYYCAKDQGDWDFLFDYWGQGTLVTVSS
VL: DIQMTQSPSFLSASVGDRVTITCRASQGISSSLAWYQQKPGKAPKLLIYTASTLQSGVPSRFSGSGSGTEFTLTISSLQPEDFATYYCQQLNYYPFSFGQGTKVEIKR

What was measured:
[1] = target: T5, Human C1q (MS Biomedical) (human, UniProt P02745 23-245; P02746 28-253; P02747 29-245); assay: C1q ELISA, plate coated with the antibody at 0.19-10 ug/mL, human C1q added at 10 ug/mL, sheep anti-human C1q-HRP detection, OD450
T5 construct: the three subunits are from general knowledge; also called complement component C1q; Clq
Description: Testing was performed in duplicate wells. The plate was sealed and incubated overnight at 4° C. The coating reagent was removed from each well and 200 μL/well of casein blocking reagent (Thermo) was added. The plate was sealed and incubated for 2 hours at room temperature (RT). Each well was washed 3 times with wash buffer (1xTBE with 0.05% Tween 20). One hundred microliters per well of Human Clq (MS Biomedical) at 10 μg/mL diluted in casein blocking reagent was added and incubated for 3 hours at RT. The plate was then washed three times with wash buffer before 100 L/well of a 1:800 dilution of Sheep anti-human C1q-HRP (Abcam #ab46191) in casein blocker was added and incubated for 1 hour at RT. The plate was washed 6 times with wash buffer, and 100 μL/well of TMB Substrate (Pierce) was added to each well and incubated for 7 minutes. One hundred microliters of 1 N HCl was added to each well to stop the reaction.

canine LEPR-ECD-His = target: T1, canine LEPR-ECD-His; assay: SPR (Biacore T200), antibody captured on Protein A/G chip, His-tagged LEPR-ECD as analyte, 1:1 fit; mean n=3, SD 2.4E-8
Description: (§1) His-tagged ECDs were expressed and purified for each species and used for affinity analysis. A Protein A/G chip (Xantec, Cat #PAGHC200M) was utilized in this experiment with HBS-EP +0.01% BSA as running buffer. Antibodies were diluted to 1 μg/mL in running buffer and captured to a single flow cell on the chip surface. Each species of LEPR-ECD was diluted to 1000 nM in running buffer followed by 2-fold serial dilution. Each ligand concentration was injected over all flow cells at 100 L/min for 150 seconds followed by a 600 second dissociation phase. Regeneration was performed by injecting 10 mM glycine pH1.5 for 30 seconds at 10 μL/min. Data were analyzed in Biacore T200 Evaluation Software 3.1 by flow-cell 1 reference subtraction along with 0 nM blank subtraction. Data were fit globally using a “1:1 Binding” binding model to determine the on-rate (kₐ) and off-rate (kd) for each ligand. The affinity (KD) was calculated from the binding kinetics according to the relationship KD=kₐ/kd. Data reported as mean±standard deviation of experimental replicates.

[2] = target: T6, human FcγRI (CD64) extracellular domain (human, UniProt P12314 16-292); assay: SPR at 25 C, antibody captured on Protein A chip
T6 construct: extracellular domain; also called FcγRI ECD
Description: (§2) Briefly, the surfaces of all 4 flow cells were activated by injecting a 1:1 mixture of EDC/NHS for 7 minutes at 10 μL/minute. […] Un-reacted sites were blocked with a 7-minute injection of ethanolamine at 10 μL/minute. Injections of 2×10 μL of glycine pH 1.5 were used to remove any noncovalently associated protein.
(§3) For FcγRI binding, antibodies were diluted to 2.5 g/mL in running buffer (1x HBS-EP+, Teknova P/N H8022), and approximately 150 RU of each antibody was captured in flow cells 2 through 4 (RUcaptured). FC1 was the reference flow cell, therefore, no antibody was captured in FC1. […] Duplicate injections of each concentration were injected over all FCs at 40 μL/minute for 120 seconds followed by a 1200 second dissociation phase. Regeneration was performed by injecting 15 μL of 10 mM glycine pH 1.5 at 30 μL/minute over all FCs. Reference-subtracted data was collected as FC2-FC1, FC3-FC1, and FC4-FC1. The measurements were obtained at 25° C. The affinity (KD) was calculated using either steady state equilibrium analysis with the Scrubber 2 Biacore® Evaluation Software or a “1:1 (Langmuir) binding” model in BIA Evaluation.
(§4) For FcγRIIa, FcγRIIb, and FcγRIIIa binding, antibodies were diluted to 5 μg/mL in running buffer, and approximately 500 RU is captured in flow cells 2 through 4 (RUcaptured). FC1 is the reference flow cell. […] Duplicate injections of each concentration were injected over all FCs at 40 L/minute for 60 seconds followed by a 120 second dissociation phase. Regeneration was performed by injecting 15μL of 10 mM glycine pH 1.5 at 30 μL/minute over all FCs.

[3] = target: T2, human FcγRIIA_131H (CD32a) …; assay: SPR at 25 C, antibody captured on Protein A chip
Description: as §2, §3, §4

[4] = target: T7, human FcγRIIIA_158V (CD16a) extracellular domain (human, UniProt P08637 17-208); assay: SPR at 25 C, antibody captured on Protein A chip
T7 construct: extracellular domain
Description: as §2, §3, §4

[5] = target: T8, human FcγRIIIA_158F (CD16a) extracellular domain (human, UniProt P08637 17-208); assay: SPR at 25 C, antibody captured on Protein A chip
T8 construct: extracellular domain
Description: as §2, §3, §4

[6] = target: T3, human FcγRIIb (CD32b) extracellular …; assay: SPR at 25 C, antibody captured on Protein A chip
Description: as §2, §3, §4

human LEPR-ECD-His = target: T4, human LEPR-ECD-His; assay: SPR (Biacore T200), antibody captured on Protein A/G chip, His-tagged LEPR-ECD as analyte, 1:1 fit; mean n=3, SD 7.1E-9
Description: as §1

T7 sequence (P08637 17-208 F176V): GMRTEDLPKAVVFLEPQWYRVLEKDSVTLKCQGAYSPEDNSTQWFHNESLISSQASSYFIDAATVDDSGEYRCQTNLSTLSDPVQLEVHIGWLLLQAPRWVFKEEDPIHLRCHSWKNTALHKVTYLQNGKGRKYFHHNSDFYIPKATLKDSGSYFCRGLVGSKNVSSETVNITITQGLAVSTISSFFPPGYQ
T6 sequence (P12314 16-292): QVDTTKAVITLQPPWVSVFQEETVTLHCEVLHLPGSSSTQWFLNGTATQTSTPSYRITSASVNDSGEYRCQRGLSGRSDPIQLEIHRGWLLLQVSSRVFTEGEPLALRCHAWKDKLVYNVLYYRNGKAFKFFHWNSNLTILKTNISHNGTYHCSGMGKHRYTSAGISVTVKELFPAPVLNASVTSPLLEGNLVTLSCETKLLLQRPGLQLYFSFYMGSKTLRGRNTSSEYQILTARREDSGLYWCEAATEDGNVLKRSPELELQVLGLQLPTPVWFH
T8 sequence (P08637 17-208): as the sequence (P08637 17-208 F176V) above, with V160F counted along it
T5 sequence (P02745 23-245 limits assumed, chain 1 of 3): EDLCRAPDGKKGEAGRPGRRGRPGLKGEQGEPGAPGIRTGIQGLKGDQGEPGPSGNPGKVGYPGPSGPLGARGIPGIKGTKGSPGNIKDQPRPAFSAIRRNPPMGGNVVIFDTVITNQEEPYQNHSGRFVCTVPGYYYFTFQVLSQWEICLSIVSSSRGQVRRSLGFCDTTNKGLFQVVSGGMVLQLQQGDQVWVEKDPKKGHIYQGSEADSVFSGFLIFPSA
T5 sequence (P02746 28-253 limits assumed, chain 2 of 3): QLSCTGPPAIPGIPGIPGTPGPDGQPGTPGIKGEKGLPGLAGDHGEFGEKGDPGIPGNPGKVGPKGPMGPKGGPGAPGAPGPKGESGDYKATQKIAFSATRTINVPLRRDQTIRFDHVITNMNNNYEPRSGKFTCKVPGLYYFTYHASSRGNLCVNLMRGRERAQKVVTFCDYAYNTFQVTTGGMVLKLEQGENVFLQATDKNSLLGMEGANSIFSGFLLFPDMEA
T5 sequence (P02747 29-245 limits assumed, chain 3 of 3): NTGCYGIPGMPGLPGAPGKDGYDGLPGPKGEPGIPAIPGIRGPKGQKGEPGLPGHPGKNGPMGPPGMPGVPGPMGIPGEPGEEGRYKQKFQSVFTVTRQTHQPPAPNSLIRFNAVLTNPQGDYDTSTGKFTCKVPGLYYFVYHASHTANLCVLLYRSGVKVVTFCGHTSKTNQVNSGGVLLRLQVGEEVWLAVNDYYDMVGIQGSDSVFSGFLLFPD

| Binder | binding result [1] | Kd (canine LEPR-ECD-His) [nM] | binding result [2] | binding result [3] | binding result [4] | binding result [5] | binding result [6] | Kd (human LEPR-ECD-His) [nM] |
| --- | --- | --- | --- | --- | --- | --- | --- | --- |
| B1 | no binding (tested: 10 ug/ml) | 130 | no binding (tested: FcγRI ECD tested up to 200 nM) | no binding (tested: receptor ECD tested up to 10 µM) | no binding (tested: receptor ECD tested up to 10 µM) | no binding (tested: receptor ECD tested up to 10 µM) | no binding (tested: receptor ECD tested up to 10 µM) | – |
| B2 | – | – | – | – | – | – | – | 26 |
